A short description of the data set: yeast display, Sf9 membrane polyspecificity reagent, FACS + sequencing; frameworks hold sequencing errors. A digest of the protocol: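 Galactose induction of a Saccharomyces cerevisiae BJ5465 synthetic nanobody display library ran 36–48 hours. The cells were then stained for 1 hour at 4 °C with 10% biotinylated, detergent-solubilized Sf9 membrane reagent, pulled down on streptavidin microbeads and FACS-sorted into low and high (top ~1%) gates on expression and reagent-binding fluorescence. Labels for polyreactivity follow the gate of origin.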
“QVQLVESGGVIVQAGGSLRLSCAATGSNFWSYAMGSSRPAPGKERELVASITRSGGSTYYADSVKGRFTISRDNAKNTVYSQMNSLKPEDTAVYYCNARRTTRWGSSKYEYDYWGQGTQVTVSS”: the “polyreactivity (PSR sort gate)” value is recorded as “high polyreactivity”.
In the case of “QVQLVESGGVLDQAGGSLGLSCAASGRTLRKYAMGWYRQAPGKERELVAAITWTGGTTYYADSVKGRFTISRDNAKNTVYLQMNTLKPEDTAFYFCGTVRRYGYGYDYWGQGTQVTVSS” it was “high polyreactivity”.
The result for “QVQLVESGGVLVQAGGSLLLSCAASGFTFGCYGMGWYRQARGKERELGAAITKSGGRTYYADSVKGRFTISRDNAKNTVYLQMNSLLREDTAVYYCAASSQGDGGYWGQGSQVTVSS” reads “high polyreactivity”.
For the sequence “QVQLVESGGVLVQAGGSLRITCAASGHIFFYDTMGWYRQAPGKERELVAGITIGGSTNYADSVKGRFTISRDNAKNTVSLQMNSLKPEDTAVYFCNVVKYVYIYSYWEYYYWGQCTQVTVSS”, the “polyreactivity (PSR sort gate)” value is on record as “low polyreactivity”.
As to “QVQLVESGGVLVQAGGSLRLICAASGSIFNRYAMGWYRHAPGKDRELVAAISRSGGRTYYADSVKGRFTISRDNAKNTVYLQMNSLKPEDTAVYYCAADKYYRQHEYDYWGQGTQVTVSS”, the “polyreactivity (PSR sort gate)” value is “high polyreactivity”.
The result for “QVQLVESGGVLVQAGGSLRLICAASVFTFYSYAIGWYRQATGTERELVAGISRSGGSTYYADSVKGRFTISRDNAKNTVYLHMNRLKPEDTAVYYCNVRLRKKIQNSKYDYWGQGTQVSVSS” reads “high polyreactivity”; that for “QVQLVESGGVLVQAGGSLRLSCAASGFTFSLYGMGWYRQAPGKEREFVAAIRSGGSTNYADSVKGRFTISRDNAKNTVYLQMNRLKPEDTAVYYCATDIHSVHNNRDKHDYDYWGQGTQVTVSS”, “low polyreactivity”.
In the case of “QVQLVESGGVLVQAGGSLRLSCAASGGIFQGNVMGWYRQAPGKERELVASIRRGGSTNYADSVKGPFTISRDNAKNTVYLQMNSLKPEDTAVYYCNAAFYKEYYYWGQGTQVTVSS” it was “low polyreactivity”; in that of “QVQLVESGGVLVQAGGSLRLSCAASGITLTANAMGWYRQAPGKERELVAAISRGGSKYYADSVKGRFTISRDNAKNPGYLQMNSLKPEDTAVYYCNKAGGYWYAKRDYDYWGQVTQVTVSS”, “high polyreactivity”.
With “QVQLVESGGVLVQAGGSLRLSCAASGLDYYAIGWYRQAPGKERELVAAIDWSGVSTYYADSVKGRFTISRDNAKNTVYLQMNSLKPEDTAVDYCAALYYGWPRVSYGLGEYGYWGQGTQVTVSS”, the “polyreactivity (PSR sort gate)” value is “low polyreactivity”.
The result for “QVQLVESGGVLVQAGGSLRLSCAASGNIFDQNAMGWYRQAPGKERELVAAITRSGSTTYYADSVKGRFTISRDNAKNTVYLQMNSLNPEDTAVYYCAAKVYAYRTYKMYYWGQGTQVTVSS” reads “high polyreactivity”; that for “QVQLVESGGVLVQAGGSLRLSCAASGRIFAYYTMGWYRQAPGKEREMVAAISLSGSSTYYADSVKGRFTISRDNAKNNVYLHMNSLKPEDTAVYYCNADSYAYYSWYDYWGQGTQVTVSS”, “low polyreactivity”.
In the case of “QVQLVESGGVLVQAGGSLRLSCAASGRIFDYYAMGWYRKAPGKERELVAAITSGGTTTYYADSVKGRFTISRDNAKNTVYLQMKSLKPEDTAVYYCAKYPYHIYHTEGDYWGQATQVTVSS” it was “low polyreactivity”; in that of “QVQLVESGGVLVQAGGSLRLSCAASGRIFSIYGMGWYRQAPVKEREFVASITYSGGSTYNADSVKGRFTISRDTAKNTVYLQMKSLKPEDTAVYYCAKYVFSAYDYWGQGTQVTVSS”, “low polyreactivity”; in that of “QVQLVESGGVLVQAGGSLRLSCAASGRIFSNYAMGWYRQAPGKEWELVATIRKGGGSTYYADSVKGRFTISRDNAKNTVYLQMNSLKPEDTAVYYCAADGSLQTRRFDYWGQGTQVTVSS”, “high polyreactivity”.
On to “QVQLVESGGVLVQAGGSLRLSCAASGRIFSSNAMGWYRHAPGKESEFVADISWRTGSTYYADSVKGRFTISRDNAKNTVYLQMNSLKPEDTAVYYCKKRTGSYGYPYYYWGQGTQVTVSS”, for which the “polyreactivity (PSR sort gate)” value was “high polyreactivity”.
The result for “QVQLVESGGVLVQAGGSLRLSCAASGRIFTRNAMGWYRQAPGKERELVASITRGGSTYYADSVKGRFTISRDNAKITVYLQMNCLKAEDTALYYCAAVFYDRGQRYNYWGQGTQVTVSS” reads “high polyreactivity”; that for “QVQLVESGGVLVQAGGSLRLSCAASGRTFGGNVMAWYRQAPGKERELVAAISYSGGSTHYADSVKGRFTNSRDNAKNTVYLQMNSLKPEDTAVYYCAKDGEVTGDYWGLGTQVTVSS”, “low polyreactivity”.
In the case of “QVQLVESGGVLVQAGGSLRLSCAASGRTFRYYAMGWYRQAPGKERELVAAITVTVTSTFYADSVKGRFTISRDNAKNTVYLQMNSLKPEDTAVYYCAKVDRQSPGQYYYWGQGTQVTVSS” it was “low polyreactivity”; in that of “QVQLVESGGVLVQAGGSLRLSCAASGRTFWYNAMGWYRQAPGKEWELVAAISSTGGRTYYADSVKGRFTISRDNAKTTVYLQMNSLKPEDTAVYYCAARQLSSHYDYWGQGTQVTVSS”, “low polyreactivity”; in that of “QVQLVESGGVLVQAGGSLRLSCAASGRTFYLYAMGWYRHAPGKERELVAAISWSDDTTYYADSVKGRFTISRDNAKNTVYLQRNSLKPEDTAVYYCAAEQEQVALYDYWGQGTQVTVSS”, “high polyreactivity”.
In the case of “QVQLVESGGVLVQAGGSLRLSCAASGRTIWYYAMGWYRQAPGKERELVASITRSGGTTYADSVKGRFTISRDNAKNTVYLQMNSLKPEDTAVYYCAATRPRIPVYQNNYGYWGQGTQLTVSS” it was “high polyreactivity”; in that of “QVQLVESGGVLVQAGGSLRLSCAASGRTLGTYAMGWYRQAPGKERELVAAITHSGGTTYYADSVKGRFTISRDNAKNTVYLQMNSLKPEDTAVYYCAADARFRTVSPMDYWGQGTQVTVSS”, “low polyreactivity”; in that of “QVQLVESGGVLVQAGGSLRLSCAASGRTYGTYAMGWYRQAPGKERELVAGINGSGGSTYYADSVKGRFTISRDNAKNTVFLQMNSLKPEDTAVYYCYKYGRRPYGLRGYWGEGTQVTVSS”, “high polyreactivity”.
For the sequence “QVQLVESGGVLVQAGGSLRLSCAASGSIFASNAMGWYRQAPGKEREFVAAISWSGTRTYYADSVKGRFTISRDTAKNTVYLQMNSLKPEDTAVYYCAALTVLRNDYWGLGTQVTVSS”, the “polyreactivity (PSR sort gate)” value is on record as “low polyreactivity”.
In the case of “QVQLVESGGVLVQAGGSLRLSCAASGSIFDHYAMGWYRQAPGKERELVAAITYSDGSTYYADSVKGRFTISRDNAKNTVFLQMNSLKPEDTAVFYCAAYPRGSQRYNYWGQGTHVTVSS”, the “polyreactivity (PSR sort gate)” value was “high polyreactivity”.
The result for “QVQLVESGGVLVQAGGSLRLSCAASGSIFEVNSMGWYRQAPGKERELVDTITYSGGSTYYADSVKGRFTLSRDNAKNNVYLQMNSLKPEDTAVYYCATDYVDWELYIYDYWGQGTQVTVSS” reads “low polyreactivity”; that for “QVQLVESGGVLVQAGGSLRLSCAASGSIFGTYAMGWYRRAPGKERELVAAITSDGVDTYYADSVKGRFTISRDNAKITVYLQMNSLKPEDTAVYYGAAEYEGLYGYGYWGQGTQVTVSS”, “high polyreactivity”; that for “QVQLVESGGVLVQAGGSLRLSCAASGSIFSYNVMGWYRQAQGKEREFVAAITRSGGSTYYADSVKGRFTISRDNAKNTVYLQMNSLKPEDTAVYYCATAYYYTPFREYYYWGQGTQVTVSS”, “low polyreactivity”.
In the case of “QVQLVESGGVLVQAGGSLRLSCAASGSIFYVNTMGWYRQAPGKDRELVADISSGDSTYYADSVKGRFTISRDNAKNTVYLQMNSLKPEDTAVFYCNADVYSWVSGKEGDYWGQGTQVTVSS” it was “low polyreactivity”.

The values are drawn from the nanobody polyreactivity screen of Harvey et al. (2022).
